Assay [1] has as its target pertactin ectodomain (Prn-E) (Bordetella (species not stated)). Briefly: static light scattering.
Assay [2] has the same target. Briefly: isothermal titration calorimetry (ITC).

For the substance “Mtd-P1 (major tropism determinant variant of Bordetella bacteriophage BPP-1) (from UniProt Q775D6 1-381)”, in assay [1], the stoichiometry of association between Mtd and Prn-E (Mtd monomers per Prn-E (ratio 3:1)) amounted to 3. Moreover, the Kd in assay [2] was 3000 nM.

By Kd is commonly meant the concentration at which binding is half-saturated. The low end stands for tighter binding, the high end for weaker binding.

The values are drawn from patent US7749694.
